Experimental data reported in publication PMC11246403.

How the values were obtained:
[1] = target: KNP-301 (UniProt Q9Y279); assay: SPR
[2] = target: C3 (UniProt P01024); assay: ELISA
[3] = target: Human VEGF165 (human); assay: ELISA
[4] = target: cynomolgus C3b (cynomolgus monkey); assay: ELISA
[5] = target: cynomolgus VEGF (cynomolgus monkey); assay: ELISA
[6] = target: human C3b (human) (UniProt P01024); assay: ELISA
[7] = target: rabbit C3b (rabbit) (UniProt P12247); assay: ELISA
[8] = target: rabbit VEGF (rabbit); assay: ELISA
[9] = target: rat C3b (rat) (UniProt P01026); assay: ELISA
Sequence of UniProt P01026 (P01026 25-1663): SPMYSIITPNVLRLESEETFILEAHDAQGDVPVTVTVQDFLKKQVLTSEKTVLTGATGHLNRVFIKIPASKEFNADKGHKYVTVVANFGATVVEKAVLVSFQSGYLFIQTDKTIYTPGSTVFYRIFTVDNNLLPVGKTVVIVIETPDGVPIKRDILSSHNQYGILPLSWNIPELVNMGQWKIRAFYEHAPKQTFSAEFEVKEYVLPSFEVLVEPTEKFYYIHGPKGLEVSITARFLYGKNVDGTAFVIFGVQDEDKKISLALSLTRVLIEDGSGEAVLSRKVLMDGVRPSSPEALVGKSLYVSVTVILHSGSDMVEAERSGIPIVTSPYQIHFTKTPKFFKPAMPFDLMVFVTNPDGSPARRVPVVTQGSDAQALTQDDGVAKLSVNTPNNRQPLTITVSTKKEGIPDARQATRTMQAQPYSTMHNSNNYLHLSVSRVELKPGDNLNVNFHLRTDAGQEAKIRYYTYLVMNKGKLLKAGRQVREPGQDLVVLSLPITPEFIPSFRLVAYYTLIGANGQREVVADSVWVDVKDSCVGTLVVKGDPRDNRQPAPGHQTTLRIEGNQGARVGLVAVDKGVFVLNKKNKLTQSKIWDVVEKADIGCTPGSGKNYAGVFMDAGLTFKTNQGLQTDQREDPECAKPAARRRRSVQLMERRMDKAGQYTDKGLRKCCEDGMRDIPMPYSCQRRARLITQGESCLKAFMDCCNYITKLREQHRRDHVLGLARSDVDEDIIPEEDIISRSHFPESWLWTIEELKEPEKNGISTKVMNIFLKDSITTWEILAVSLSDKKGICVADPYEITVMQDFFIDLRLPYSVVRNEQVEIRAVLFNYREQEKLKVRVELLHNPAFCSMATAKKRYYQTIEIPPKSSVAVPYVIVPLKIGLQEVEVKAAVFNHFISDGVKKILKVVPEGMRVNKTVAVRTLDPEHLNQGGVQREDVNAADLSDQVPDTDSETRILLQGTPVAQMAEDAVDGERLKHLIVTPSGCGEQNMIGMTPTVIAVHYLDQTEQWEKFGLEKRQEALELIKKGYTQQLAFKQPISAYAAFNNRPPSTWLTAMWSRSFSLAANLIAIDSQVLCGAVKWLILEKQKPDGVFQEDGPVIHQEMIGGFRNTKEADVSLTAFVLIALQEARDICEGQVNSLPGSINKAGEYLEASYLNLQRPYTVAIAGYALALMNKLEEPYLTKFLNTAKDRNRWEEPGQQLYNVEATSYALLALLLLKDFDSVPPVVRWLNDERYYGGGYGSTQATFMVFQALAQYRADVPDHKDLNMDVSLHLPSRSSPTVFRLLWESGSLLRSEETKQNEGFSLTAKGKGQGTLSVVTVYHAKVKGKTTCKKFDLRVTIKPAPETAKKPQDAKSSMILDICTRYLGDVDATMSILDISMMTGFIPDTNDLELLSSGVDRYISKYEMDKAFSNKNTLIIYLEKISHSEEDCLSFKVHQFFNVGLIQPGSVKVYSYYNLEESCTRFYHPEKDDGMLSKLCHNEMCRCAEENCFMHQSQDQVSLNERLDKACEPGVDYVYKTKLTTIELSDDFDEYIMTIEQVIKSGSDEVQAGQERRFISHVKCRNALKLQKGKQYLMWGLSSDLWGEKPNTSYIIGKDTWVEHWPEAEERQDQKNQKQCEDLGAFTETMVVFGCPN

[10] = target: rat VEGF (rat) (UniProt P16612); assay: ELISA

Sequence of UniProt P12247 (P12247 whole entry, chain 1 of 2): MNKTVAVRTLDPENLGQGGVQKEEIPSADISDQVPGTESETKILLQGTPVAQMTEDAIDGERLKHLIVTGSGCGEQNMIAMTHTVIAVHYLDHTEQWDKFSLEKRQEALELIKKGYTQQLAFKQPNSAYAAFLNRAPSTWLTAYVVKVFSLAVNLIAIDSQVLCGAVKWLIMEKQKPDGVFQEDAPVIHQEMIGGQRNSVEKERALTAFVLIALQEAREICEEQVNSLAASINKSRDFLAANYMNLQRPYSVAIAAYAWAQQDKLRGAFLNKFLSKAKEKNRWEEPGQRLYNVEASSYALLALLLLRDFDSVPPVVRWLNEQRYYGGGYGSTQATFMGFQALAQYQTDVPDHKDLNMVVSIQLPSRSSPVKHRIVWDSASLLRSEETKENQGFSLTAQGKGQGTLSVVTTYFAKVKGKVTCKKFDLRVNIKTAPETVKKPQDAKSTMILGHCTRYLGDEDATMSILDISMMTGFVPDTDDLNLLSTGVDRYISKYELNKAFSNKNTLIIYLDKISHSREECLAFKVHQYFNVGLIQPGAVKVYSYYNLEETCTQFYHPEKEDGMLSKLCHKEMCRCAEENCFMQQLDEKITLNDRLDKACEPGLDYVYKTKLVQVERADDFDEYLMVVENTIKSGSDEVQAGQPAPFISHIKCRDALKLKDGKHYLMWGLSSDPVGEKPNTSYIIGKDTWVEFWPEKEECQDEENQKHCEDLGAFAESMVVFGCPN
Sequence of UniProt P12247 (P12247 whole entry, chain 2 of 2): as the sequence (P12247 whole entry, chain 1 of 2) above

Row | Substance | Kd [1] [nM] | fold lower binding affinity than to C3b (ratio of IC50 values) [2] [fold] | relative binding affinity (%) [3] [%] | relative binding affinity (%) [4] [%] | relative binding affinity (%) [5] [%] | relative binding affinity (%) [6] [%] | relative binding affinity (%) [7] [%] | relative binding affinity (%) [8] [%] | relative binding affinity (%) [9] [%] | relative binding affinity (%) [10] [%]
1 | human C3b (from UniProt P01024 23-667; P01024 749-1663) (natural protein) | 4.34 | – | – | – | – | – | – | – | – | –
2 | Human VEGF165 (ligand) | 0.0628 | – | – | – | – | – | – | – | – | –
3 | KNP-301 (from UniProt Q9Y279 20-283) (Fc fusion) | – | 10 | 100 | 78.3 | 75.8 | 100 | 1.2 | 165 | 6.3 | 80.8
